Among the data in patent publication US20090252724A1 (Hoffmann-La Roche, published 2009) are Kd values, retold here.

Test [1] concerns the target T1, Aβ1-40 fibers (human).
T1 construct: Synthetic peptide aggregated to fibers in vitro (200 µg/ml, 10 mM Na-acetate pH 4.0, 3 days, 37 °C) and coupled to a CM5 chip; also called Aβ1-40 fibrils; fibrillar Aβ40
Briefly: SPR (Biacore), Aβ1-40 fibers on CM5, Scatchard; low affinity (monovalent) KD; extrapolated equilibrium responses; stdev 8.40. Here is the method:
(§1) Binding of ANTIBODY A to fibrillar Aβ was measured online by surface plasmon resonance (SPR), and the affinities of the molecular interactions were determined as follows: Biacore2000 and Biacore3000 instruments were used for these measurements. Aβ1-40 and Aβ1-42 fibers were generated in vitro by incubation of synthetic peptides at a concentration of 200 μg/ml in 10 mM Na-acetate buffer (pH 4.0) for three days at 37° C. Electron microscopic analysis confirmed a fibrillar structure for both peptides, Aβ1-40 showing predominantly shorter (<1 micron) and Aβ1-42 predominantly longer (>1 micron) fibers. […]
(§2) This coupling procedure included an activation step, during which the carboxylic acid groups on the surface were transferred into chemically reactive succinimide ester groups by contacting the surface with an aqueous mixture of N-hydroxysuccinimide and 1-ethyl-1-(3-[…])-carbodiimide hydrochloride, and an immobilization step, during which the activated surface was contacted with the fibres dissolved in 10 mM acetate buffer (pH 4.5) at 200-350 resonance units (1 resonance unit (RU) corresponds approximately to a surface loading of 1 picogram/mm²). […] Typical time dependent response curves (=sensograms) monitored during the association phase (during contact with buffer) and the dissociation phase (subsequent contact with buffer) are shown in FIG. 7. […]

Test [2] addresses T1, Aβ1-40 fibers. The experiment in a line: SPR (Biacore), Aβ1-40 fibers on CM5, Scatchard; low affinity (monovalent) KD; experimental equilibrium responses. On the procedure:
(§3) Binding of ANTIBODY A to fibrillar Aβ was measured online by surface plasmon resonance (SPR), and the affinities of the molecular interactions were determined as follows: Biacore2000 and Biacore3000 instruments were used for these measurements. Aβ1-40 and Aβ1-42 fibers were generated in vitro by incubation of synthetic peptides at a concentration of 200 μg/ml in 10 mM Na-acetate buffer (pH 4.0) for three days at 37° C. Electron microscopic analysis confirmed a fibrillar structure for both peptides, Aβ1-40 showing predominantly shorter (<1 micron) and Aβ1-42 predominantly longer (>1 micron) fibers. These fibers were assumed to represent aggregated Aβ peptides in human AD brain more closely than ill-defined mixtures of amorphous aggregates and unstructured precipitates. The fibers were diluted 1:10 and directly coupled to a CM5 as described in the Instruction Manual of the manufacturer (BIAapplication Handbook, version AB, Biacore AB, Uppsala, 1998).
(§4) This coupling procedure included an activation step, during which the carboxylic acid groups on the surface were transferred into chemically reactive succinimide ester groups by contacting the surface with an aqueous mixture of N-hydroxysuccinimide and 1-ethyl-1-(3-[…])-carbodiimide hydrochloride, and an immobilization step, during which the activated surface was contacted with the fibres dissolved in 10 mM acetate buffer (pH 4.5) at 200-350 resonance units (1 resonance unit (RU) corresponds approximately to a surface loading of 1 picogram/mm²). The fiber loaded surface was then contacted with the antibody solutions in the concentration range 200 nM≧C≧0.15 nM. Typical time dependent response curves (=sensograms) monitored during the association phase (during contact with buffer) and the dissociation phase (subsequent contact with buffer) are shown in FIG. 7.
(§5) Briefly, KD values were calculated by Scatchard type analysis using concentration dependent equilibrium binding responses. These equilibrium binding constants could be obtained in two ways.

Test [3] addresses T1, Aβ1-40 fibers. Briefly: SPR (Biacore), Aβ1-40 fibers on CM5, Scatchard; high affinity (bivalent) KD; experimental equilibrium responses. Here is the method: as §3, §4, §5
Background: SPR reads the build-up and loss of mass on a sensor chip optically.

Test [4] concerns the target T1, Aβ1-40 fibers. Briefly: SPR (Biacore), Aβ1-40 fibers on CM5, Scatchard; high affinity (bivalent) KD; extrapolated equilibrium responses; stdev 0.10. Here is the method: as §1, §2
The target of test [5] is T1, Aβ1-40 fibers. The experiment in a line: SPR (Biacore), Aβ1-40 fibers on CM5, Scatchard; low affinity (monovalent) KD; extrapolated equilibrium responses; stdev 22.33. On the procedure: as §1, §2
Test [6] concerns the target T1, Aβ1-40 fibers. Briefly: SPR (Biacore), Aβ1-40 fibers on CM5, Scatchard; high affinity (bivalent) KD; extrapolated equilibrium responses; stdev 0.02. On the procedure:
as §1, §2

In test [7] the target is T1, Aβ1-40 fibers. The experiment in a line: SPR (Biacore), Aβ1-40 fibers on CM5, Scatchard; high affinity (bivalent) KD; extrapolated equilibrium responses; stdev 0.03. Here is the method: as §1, §2
The target in test [8] is T1, Aβ1-40 fibers. The experiment in a line: SPR (Biacore), Aβ1-40 fibers on CM5, Scatchard; low affinity (monovalent) KD; extrapolated equilibrium responses; stdev 0.15. On the procedure: as §1, §2

B1: ANTIBODY A COMPOSITION (mixture of mono- and double-glycosylated ANTIBODY A) (antibody, human IgG1, kappa, V domains shown)
VH: QVELVESGGGLVQPGGSLRLSCAASGFTFSSYAMSWVRQAPGKGLEWVSAINASGTRTYYADSVKGRFTISRDNSKNTLYLQMNSLRAEDTAVYYCARGKGNTHKPYGYVRYFDVWGQGTLVTVSS
VL: DIVLTQSPATLSLSPGERATLSCRASQSVSSSYLAWYQQKPGQAPRLLIYGASSRATGVPARFSGSGSGTDFTLTISSLEPEDFATYYCLQIYNMPITFGQGTKVEIKR
modifications: N-linked glycan at Asn52 (VH CDR2) on one or on both heavy chains (mixture of the two isoforms); N-linked glycan at Asn306 (Fc)
notes: also called Mixture of mono- and double-glycosylated ANTIBODY A isoforms (1:1)
Turning to B1, the Kd in test [1] is 27.2 nM; in test [2] it was 21 nM; in test [3], 0.41 nM; in test [4] it was 0.49 nM.

B2: double-glycosylated ANTIBODY A (antibody, human IgG1, kappa, V domains shown)
VH: B1 VH
VL: B1 VL
modifications: N-linked glycan at Asn52 (VH CDR2) on both heavy chains; N-linked glycan at Asn306 (Fc)
notes: Human IgG1 kappa, made in CHO cells, separated by cation exchange chromatography; also called double-glycosylated ANTIBODY A isoform; double-glycosylated isoform
B2: the Kd in test [5] was 18.5 nM; in test [6], 1.43 nM; in test [2], 29 nM; in test [3], 1.54 nM.

B3: non-glycosylated ANTIBODY A (antibody, human IgG1, kappa, V domains shown)
VH: B1 VH
VL: B1 VL
modifications: Asn52 not glycosylated; N-linked glycan at Asn306 (Fc)
notes: Human IgG1 kappa, made in CHO cells; no glycan in the variable region; also called non-glycosylated ANTIBODY A isoform; non-glycosylated isoform
With B3, the Kd in test [7] is 0.19 nM; in test [8], 1.99 nM; in test [2] it was 2.82 nM; in test [3] it was 0.42 nM.
